Results on four molecules are retold here after PMC2191090 (The Journal of Experimental Medicine, 1993).

Where no end group is shown, it is not given here. The star is where a group is joined. Biotin = O=C1N[C@H]2[C@H](CS[C@H]2CCCCC(=O)*)N1; 22‑Å spacer = not defined here

The target of assay [1] is HLA-DR4 (DRB1*0401) on Priess cells (human (endogenous in Priess)). The assay is described as follows: flow cytometry on cells.
Assay [2] addresses HLA-DR7 (DRB1*0701) on Mann cells (human (endogenous in Mann)). The assay is described as follows: flow cytometry on cells.
The test system of assay [3] is surface-expressed HLA-DR. Put plainly: Specificity of peptide binding to surface-expressed HLA-DR. Also noted: species or system human. The following applies: amino-terminal biotin via 22-A spacer.
Assay [4] addresses HLA-DR2 (DRB1*1501/DRB5*0101) on MST cells (human (endogenous in MST)). Put plainly: flow cytometry on cells.
Assay [5] concerns the target HLA-DR1 (DRB1*0101) on LG-2 cells (human (endogenous in LG-2)). The assay is described as follows: flow cytometry on cells.
In assay [6] the target is HLA-DR8 (DRB1*0801) on 23.1 cells (human (endogenous in 23.1)). Put plainly: flow cytometry on cells.
Assay [7] deals with HLA-DR3 (DRB1*0301) on WT-20 cells (human (endogenous in WT-20)). The assay is described as follows: flow cytometry on cells.

As to “biotinylated synthetic Ig kappa chain C region peptide 188-202”, the relative mean log fluorescence was 189 in assay [1] and 171 in assay [2].
In the case of “VGSDWRFLRGYHQYA [HLA-A2-1ike peptide 103-117]”, the “effect of biotinylation on binding (in words)” value in assay [3] is reported as “interfered with the normal mode of binding”.
As for {Biotin-22‑Å spacer}-APSPLPETTENVVCALG (reading uncertain) [biotinylated synthetic HLA-DR alpha chain peptide 182-198], the relative mean log fluorescence in assay [1] was 189; in assay [4], 148; in assay [5], 345; in assay [6], 172; in assay [7] it was 176.
In the case of {Biotin-22‑Å spacer}-LPKPPKPVSKMRMATPLLMQALPM (reading uncertain) [biotinylated synthetic invariant chain (Ii) peptide 97-120], the relative mean log fluorescence stood at 215 in assay [1] and 288 in assay [2].
